Here are results for one substance from patent US20250388637A1.

The experiment deals with Recombinant human PDGF-B (human) (UniProt P01127).

For the substance MBP-GCN4-Prodomain, the inhibition of PDGF-B stimulated PDGFR-β phosphorylation, BHK-21/PDGFR-β cells came out at 16%.
